Data set [1] concerns the target T1, TIA-1 full length (short isoform, p40) (human, UniProt P31483-2 1-375).
T1 sequence: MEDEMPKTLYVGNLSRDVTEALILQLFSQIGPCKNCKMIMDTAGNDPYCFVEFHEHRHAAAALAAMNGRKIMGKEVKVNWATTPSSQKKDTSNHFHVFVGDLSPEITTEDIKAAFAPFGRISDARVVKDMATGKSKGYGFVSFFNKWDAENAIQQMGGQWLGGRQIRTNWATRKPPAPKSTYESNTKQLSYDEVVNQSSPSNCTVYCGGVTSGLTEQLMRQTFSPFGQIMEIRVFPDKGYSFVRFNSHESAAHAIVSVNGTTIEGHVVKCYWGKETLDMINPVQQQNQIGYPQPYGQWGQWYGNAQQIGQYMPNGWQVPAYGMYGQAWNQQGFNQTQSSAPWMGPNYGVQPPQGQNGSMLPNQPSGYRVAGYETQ
Put plainly: SAXS; 500 mM arginine; SASDJL5; FA: 1 nM Fl-TC1; RRM23 in 10 mM HEPES pH 7.2, 50 mM NaCl, 1 mM DTT (legend: 20 mM HEPES); full-length TIA-1 in 20 mM sodium phosphate, 60 mM KCl, 0.5 M arginine-HCl, 1 mM MgCl2, 2 mM DTT, 0.5 mM EDTA, pH 7; Csat at room temperature. The conditions noted are these: protein: recombinant; tags: His-tag removed by TEV (untagged).

Data set [2] deals with T1, TIA-1 full length (short isoform, p40). Put plainly: co-sedimentation with condensed phase (PAGE); 4:1 TIA-1:TC site, 10 uM TIA-1; FA: 1 nM Fl-TC1; RRM23 in 10 mM HEPES pH 7.2, 50 mM NaCl, 1 mM DTT (legend: 20 mM HEPES); full-length TIA-1 in 20 mM sodium phosphate, 60 mM KCl, 0.5 M arginine-HCl, 1 mM MgCl2, 2 mM DTT, 0.5 mM EDTA, pH 7; Csat at room temperature. The conditions noted are these: protein: recombinant; tags: His-tag removed by TEV (untagged).

Data set [3] has the same target. Put plainly: fluorescence anisotropy; 0.5 M arginine-HCl, 60 mM KCl, 1 mM MgCl2; KD not in text; FA: 1 nM Fl-TC1; RRM23 in 10 mM HEPES pH 7.2, 50 mM NaCl, 1 mM DTT (legend: 20 mM HEPES); full-length TIA-1 in 20 mM sodium phosphate, 60 mM KCl, 0.5 M arginine-HCl, 1 mM MgCl2, 2 mM DTT, 0.5 mM EDTA, pH 7; Csat at room temperature. The conditions noted are these: protein: recombinant; tags: His-tag removed by TEV (untagged); label: 5'-fluorescein.

For data set [4] the target is unchanged. Put plainly: SAXS; 500 mM arginine; SASDJK5; FA: 1 nM Fl-TC1; RRM23 in 10 mM HEPES pH 7.2, 50 mM NaCl, 1 mM DTT (legend: 20 mM HEPES); full-length TIA-1 in 20 mM sodium phosphate, 60 mM KCl, 0.5 M arginine-HCl, 1 mM MgCl2, 2 mM DTT, 0.5 mM EDTA, pH 7; Csat at room temperature. To be noted: protein: recombinant; tags: His-tag removed by TEV (untagged).

For the molecule UUUUUACUCC (ssRNA) [UC1], in data set [1], the binding result was “binds”.

B1: TC7 (ssDNA)
DNA: TTTTTACTCCAATTTTTACTCCAATTTTTACTCCAATTTTTACTCCAATTTTTACTCCAATTTTTACTCCAATTTTTACTCC
As to B1, in data set [2], the binding result is on record as “binds”.

As to TTTTTACTCC (ssDNA) [TC1 (5'-fluorescein)], the binding result in data set [3] is “binds”.

As for TTTTTACTCCAATTTTTACTCC (ssDNA) [TC2], in data set [2], the binding result is “binds”.

TTTTTACTCC (ssDNA) [TC1]: in data set [4], the binding result is reported as “binds”.

B2: TC9 (ssDNA)
DNA: TTTTTACTCCAATTTTTACTCCAATTTTTACTCCAATTTTTACTCCAATTTTTACTCCAATTTTTACTCCAATTTTTACTCCAATTTTTACTCCAATTTTTACTCC
With B2, the binding result in data set [2] is “binds”.

For the molecule TTTTTACTCCAATTTTTACTCCAATTTTTACTCC (ssDNA) [TC3], in data set [2], the binding result is reported as “binds”.

B3: TC5 (ssDNA)
DNA: TTTTTACTCCAATTTTTACTCCAATTTTTACTCCAATTTTTACTCCAATTTTTACTCC
For the molecule B3, the binding result in data set [2] is given as “binds”.

(Values after article PMC7969032, “Tandem RNA binding sites induce self-association of the stress granule marker protein TIA-1”.)
